In general, stoichiometry N refers to a count of units in the complex or per binding partner.

The series concerns the molecule itself. The series can be described thus: SAXS; nucleotide-free KaiC monomer (1.69 mg/ml) mixed with P-buffer containing ATP to 1 mM final; curve taken at 30°C 6 min after addition of ATP; monomer to hexamer.

B1: KaiC (natural protein, UniProt Q79PF4 1-519, looked up)
chain: MTSAEMTSPNNNSEHQAIAKMRTMIEGFDDISHGGLPIGRSTLVSGTSGTGKTLFSIQFLYNGIIEFDEPGVFVTFEETPQDIIKNARSFGWDLAKLVDEGKLFILDASPDPEGQEVVGGFDLSALIERINYAIQKYRARRVSIDSVTSVFQQYDASSVVRRELFRLVARLKQIGATTVMTTERIEEYGPIARYGVEEFVSDNVVILRNVLEGERRRRTLEILKLRGTSHMKGEYPFTITDHGINIFPLGAMRLTQRSSNVRVSSGVVRLDEMCGGGFFKDSIILATGATGTGKTLLVSRFVENACANKERAILFAYEESRAQLLRNAYSWGMDFEEMERQNLLKIVCAYPESAGLEDHLQIIKSEINDFKPARIAIDSLSALARGVSNNAFRQFVIGVTGYAKQEEITGLFTNTSDQFMGAHSITDSHISTITDTIILLQYVEIRGEMSRAINVFKMRGSWHDKAIREFMISDKGPDIKDSFRNFERIISGSPTRITVDEKSELSRIVRGVQEKGPES
In the case of B1, the “stoichiometry N” value came to 6.05 ± 0.08 fold.

The record behind these values is article PMC4736791 (Biophysics, 2015).
